Test system: Purified recombinant SF2

Recombinant IKKi was tested, and the “in vitro kinase assay” value was “IKKi indeed was able to phosphorylate SF2 in vitro”.

Source: patent publication US20230009539
